Laboratory results as given in patent publication US20220204644A1 (MAB DISCOVERY, published 2022).

Experiments:
[1] = target: T1, HER2 sub-domain I, recombinant (human, UniProt P04626 23-217, limits assumed); test: ELISA, coated HER2 domain
T1 construct: domain: sub-domain I; also called HER2 domain I
Description: (§1) Recombinant Her2 domains (full length ECD purchased from Biozol, ECD domains produced at Mab Discovery), were coated on a 384-well Nunc™ MaxiSorp™ plate at optimized concentrations ([…]) in PBS for one hour at room temperature. After washing three times with wash buffer (PBS, 0.1% Tween), plates were blocked with PBS, 2% BSA, 0.05% Tween for one hour at room temperature. Plates were washed again three time with wash buffer and antibodies at a concentration of 10 μg/ml in PBS, 0.5% BSA, 0.05% Tween were incubated for one hour at room temperature. After 3 washes in wash buffer, wells were incubated with 12.5 μl of a 1:5000 dilution of anti-human peroxidase-linked, species specific F(ab)2 Fragment from goat (AbD Serotec) in ELISA buffer for one hour at room temperature. Wells were washed six times with wash buffer and 15 μl/well TMB substrate solution (Invitrogen) were added. After 10 minutes at room temperature 15 μl Stop solution (1M HCl) were added per well and absorbance at 450 and 620 nm wavelength was measured using a Tecan M1000 microplate reader.

[2] = target: T2, HER2 full-length extracellular domain (ECD), recombinant (human, UniProt P04626 23-652); test: ELISA, coated HER2 ECD, antibody at 10 µg/ml
T2 construct: extracellular domain; also called full length ECD; HER2 full-length ECD
Description: as §1

binding result [1]: no binding (tested: 10 µg/ml)
binding result [2]: binds
B1: B100 anti-HER2 monoclonal antibody (antibody, V domains shown)
VH: QSVEESGGRLVTPGTPLTLTCTVSGFSLSNYGVSWVRQAPGKGLEYIGIISGSGFTYYASWAKGRFTISKTSTTVDLKITSPTTKDTATYFCARGVVPGYNAGGLWGQGTLVTVSS
VL: DIVMTQTPASVSEPVGGTVTIKCQASQGISTALAWYQQKPGQRPKLLIYSASTLASGVSSRFKGSGSGTQFTLTISDLECADAATYYCQCTAAGSVSVGAFGGGTEVVVN
notes: It was detected in the ELISA with an anti-human F(ab)2 conjugate; also called B100 antibody
